Test results from paper PMC9546532 (Proceedings of the National Academy of Sciences of the …, 2022).

Molecular target: T1, Ela1^(1-143) of the Elc1/Ela1^(1-143) complex (separate chains) (S. cerevisiae, UniProt P53861 1-143)
T1 sequence (looked up): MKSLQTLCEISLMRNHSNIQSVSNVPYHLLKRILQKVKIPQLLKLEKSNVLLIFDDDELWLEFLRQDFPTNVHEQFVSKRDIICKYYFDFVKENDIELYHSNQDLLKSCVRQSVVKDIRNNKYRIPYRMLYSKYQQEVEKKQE
Experiment: SEC + AUC

binding result: binds
B1: Elc1 of the Elc1/Ela1^(1-143) complex (separate chains) (natural protein, S. cerevisiae, UniProt Q03071 1-99, looked up)
chain: MSQDFVTLVSKDDKEYEISRSAAMISPTLKAMIEGPFRESKGRIELKQFDSHILEKAVEYLNYNLKYSGVSEDDDEIPEFEIPTEMSLELLLAADYLSI
